Like-named read-outs stand apart in the source and are kept apart here.
Legend:
Kir4.1 channel (human) [1] = target: Kir4.1 channel (human) (UniProt P78508)
Kir1.1 channel (human) [2] = target: Kir1.1 channel (human) (UniProt P48048)
Kir4.1 channel (human) [3] = target: Kir4.1 channel (human) (UniProt P78508); remark: listed apart in the source
Kir1.1 channel (human) [4] = target: Kir1.1 channel (human) (UniProt P48048); remark: listed apart in the source

UniProt P48048, sequence (P48048 whole entry): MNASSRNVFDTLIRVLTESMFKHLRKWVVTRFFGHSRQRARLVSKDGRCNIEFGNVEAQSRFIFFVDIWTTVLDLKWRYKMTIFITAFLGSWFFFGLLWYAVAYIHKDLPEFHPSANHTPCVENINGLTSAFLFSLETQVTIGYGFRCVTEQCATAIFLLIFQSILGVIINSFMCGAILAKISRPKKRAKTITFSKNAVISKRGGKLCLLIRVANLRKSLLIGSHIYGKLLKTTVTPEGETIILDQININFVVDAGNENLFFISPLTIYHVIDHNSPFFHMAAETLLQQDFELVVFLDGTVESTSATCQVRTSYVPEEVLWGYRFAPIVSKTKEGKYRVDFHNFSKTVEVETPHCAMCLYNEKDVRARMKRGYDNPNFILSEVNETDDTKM
UniProt P78508, sequence (P78508 whole entry): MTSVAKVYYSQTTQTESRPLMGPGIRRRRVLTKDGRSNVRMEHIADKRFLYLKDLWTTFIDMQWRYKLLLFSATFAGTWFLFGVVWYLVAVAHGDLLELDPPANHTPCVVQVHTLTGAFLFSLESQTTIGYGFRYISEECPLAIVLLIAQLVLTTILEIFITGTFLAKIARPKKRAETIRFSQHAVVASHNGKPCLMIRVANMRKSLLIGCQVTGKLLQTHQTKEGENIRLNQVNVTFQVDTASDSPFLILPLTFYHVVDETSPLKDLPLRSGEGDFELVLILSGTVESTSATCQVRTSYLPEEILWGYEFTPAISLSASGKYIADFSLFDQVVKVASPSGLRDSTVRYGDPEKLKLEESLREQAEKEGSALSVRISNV

Substance | IC50 of inhibition of Kir4.1 currents at −40 mV, whole-cell patch clamp, HEK293T (Kir4.1 channel (human) [1]) [nM] | IC50 of inhibition of Kir1.1 currents at −40 mV, whole-cell patch clamp, HEK293T (Kir1.1 channel (human) [2]) [nM] | IC50 of inhibition of Kir4.1 currents at −40 mV, whole-cell patch clamp, HEK293T (Kir4.1 channel (human) [3]) [nM] | IC50 of inhibition of Kir1.1 currents at −40 mV, whole-cell patch clamp, HEK293T (Kir1.1 channel (human) [4]) [nM]
recombinant SsTx-4 (peptide) | 5600 | 60.4 |  | 
native SsTx-4 (peptide) |  |  | 6200 | 210

From article PMC8413892
